kon, Ka and stoichiometry N data for 1 substance are collected here from publication PMC5871787.

One may read the kon as the second-order rate constant of association. Lower therefore signals slower complex formation. As usually defined, the stoichiometry N is a count of units in the complex or per binding partner.

Assay [1] concerns the target M3 peptide (complementary 11th β-strand peptide of split GFP). Put plainly: other fluorescence titration; fluorescence complementation kinetics, pseudo-first order: 0.1 µM M3 peptide with 0.1–30 µM total sFP, TN buffer pH 8.0 with 1 mM DTT, 5 mM EDTA, 0.05% CHAPS, 25 °C, 14 hours; kobs1 against the concentration of sFP monomers fitted by a line; binding irreversible.
Assay [2] addresses sGFPori (sGFP 1–10 OPT), recombinant. Put plainly: fluorescence polarisation; steady-state fluorescence anisotropy of ReAsH-labelled sFP at 20, 10, 5, 2.5, 1.25 and 0.5 µM, after equilibrium at RT, triplicate; apparent equilibrium constant of dimer formation (monomers to dimer). In general terms: In fluorescence polarisation assays a small probe gives low polarisation when free and higher when bound to something large.

For assay [3] the target is unchanged. The assay is described as follows: SEC; size-exclusion HPLC of purified, non-complemented sFPs at high concentration; sGFP2 (ReAsH-labelled) at 20 µM, concentrations of the other sFPs not stated. In general terms: Size exclusion chromatography separates by hydrodynamic size, large species first.

Consider “sGFPori (sGFP 1–10 OPT), recombinant (domain or fragment)”, for which the kon in assay [1] was 70 M⁻¹ s⁻¹. For the same substance, in assay [2], the Ka was 320000 M⁻¹. In addition, the stoichiometry N in assay [3] came out at 2.
